Results reported in PMC12416549 (2024).

Target: T1, TNFR1 (Homo sapiens, UniProt P19438)
T1 chain: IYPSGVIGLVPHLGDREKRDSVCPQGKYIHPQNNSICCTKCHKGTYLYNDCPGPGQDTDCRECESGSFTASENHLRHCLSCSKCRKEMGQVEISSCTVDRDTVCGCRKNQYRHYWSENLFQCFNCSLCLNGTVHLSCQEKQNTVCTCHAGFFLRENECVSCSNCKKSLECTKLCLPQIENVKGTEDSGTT
Assay: yeast display SC50

B1: K93F (designed binder)
chain: SMEEEVEKAAKEYEKKKKEAIEKHLEKLKAKDKEAAERFLKELEEAAKEYAKDEAKTMSEEEAKRRAKKYKEKVLLSELSEEEQKEIKEAEEFLVRTILKYVEEAAK
apparent Kd (screen): 0.653 nM

B2: E34N (designed binder)
chain: SMEEEVEKAAKEYEKKKKEAIEKHLEKLKAKDKNAAERFLKELEEAAKEYAKDEAKTMSEEEAKRRAKKYKEKVLLSELSEEEQKEIKEAEEKLVRTILKYVEEAAK
apparent Kd (screen): 0.49 nM

B3: K33T (designed binder)
chain: SMEEEVEKAAKEYEKKKKEAIEKHLEKLKAKDTEAAERFLKELEEAAKEYAKDEAKTMSEEEAKRRAKKYKEKVLLSELSEEEQKEIKEAEEKLVRTILKYVEEAAK
apparent Kd (screen): 0.49 nM

B4: E7S (designed binder)
chain: SMEEEVSKAAKEYEKKKKEAIEKHLEKLKAKDKEAAERFLKELEEAAKEYAKDEAKTMSEEEAKRRAKKYKEKVLLSELSEEEQKEIKEAEEKLVRTILKYVEEAAK
apparent Kd (screen): 2.73 nM

B5: Y101M (designed binder)
chain: SMEEEVEKAAKEYEKKKKEAIEKHLEKLKAKDKEAAERFLKELEEAAKEYAKDEAKTMSEEEAKRRAKKYKEKVLLSELSEEEQKEIKEAEEKLVRTILKMVEEAAK
apparent Kd (screen): 2.25 nM

B6: E62K (designed binder)
chain: SMEEEVEKAAKEYEKKKKEAIEKHLEKLKAKDKEAAERFLKELEEAAKEYAKDEAKTMSEEKAKRRAKKYKEKVLLSELSEEEQKEIKEAEEKLVRTILKYVEEAAK
apparent Kd (screen): 0.49 nM

B7: V74Q (designed binder)
chain: SMEEEVEKAAKEYEKKKKEAIEKHLEKLKAKDKEAAERFLKELEEAAKEYAKDEAKTMSEEEAKRRAKKYKEKQLLSELSEEEQKEIKEAEEKLVRTILKYVEEAAK
apparent Kd (screen): 29.5 nM

B8: H24C (designed binder)
chain: SMEEEVEKAAKEYEKKKKEAIEKCLEKLKAKDKEAAERFLKELEEAAKEYAKDEAKTMSEEEAKRRAKKYKEKVLLSELSEEEQKEIKEAEEKLVRTILKYVEEAAK
apparent Kd (screen): 0.446 nM

B9: E104I (designed binder)
chain: SMEEEVEKAAKEYEKKKKEAIEKHLEKLKAKDKEAAERFLKELEEAAKEYAKDEAKTMSEEEAKRRAKKYKEKVLLSELSEEEQKEIKEAEEKLVRTILKYVEIAAK
apparent Kd (screen): 0.653 nM

B10: A47H (designed binder)
chain: SMEEEVEKAAKEYEKKKKEAIEKHLEKLKAKDKEAAERFLKELEEAHKEYAKDEAKTMSEEEAKRRAKKYKEKVLLSELSEEEQKEIKEAEEKLVRTILKYVEEAAK
apparent Kd (screen): 0.446 nM

B11: M2N (designed binder)
chain: SNEEEVEKAAKEYEKKKKEAIEKHLEKLKAKDKEAAERFLKELEEAAKEYAKDEAKTMSEEEAKRRAKKYKEKVLLSELSEEEQKEIKEAEEKLVRTILKYVEEAAK
apparent Kd (screen): 0.49 nM

B12: E103M (designed binder)
chain: SMEEEVEKAAKEYEKKKKEAIEKHLEKLKAKDKEAAERFLKELEEAAKEYAKDEAKTMSEEEAKRRAKKYKEKVLLSELSEEEQKEIKEAEEKLVRTILKYVMEAAK
apparent Kd (screen): 0.593 nM

B13: K85L (designed binder)
chain: SMEEEVEKAAKEYEKKKKEAIEKHLEKLKAKDKEAAERFLKELEEAAKEYAKDEAKTMSEEEAKRRAKKYKEKVLLSELSEEEQLEIKEAEEKLVRTILKYVEEAAK
apparent Kd (screen): 0.79 nM

B14: E60N (designed binder)
chain: SMEEEVEKAAKEYEKKKKEAIEKHLEKLKAKDKEAAERFLKELEEAAKEYAKDEAKTMSNEEAKRRAKKYKEKVLLSELSEEEQKEIKEAEEKLVRTILKYVEEAAK
apparent Kd (screen): 3.63 nM

B15: K71N (designed binder)
chain: SMEEEVEKAAKEYEKKKKEAIEKHLEKLKAKDKEAAERFLKELEEAAKEYAKDEAKTMSEEEAKRRAKKYNEKVLLSELSEEEQKEIKEAEEKLVRTILKYVEEAAK
apparent Kd (screen): 0.446 nM

B16: I21V (designed binder)
chain: SMEEEVEKAAKEYEKKKKEAVEKHLEKLKAKDKEAAERFLKELEEAAKEYAKDEAKTMSEEEAKRRAKKYKEKVLLSELSEEEQKEIKEAEEKLVRTILKYVEEAAK
apparent Kd (screen): 0.446 nM

B17: K17D (designed binder)
chain: SMEEEVEKAAKEYEKKDKEAIEKHLEKLKAKDKEAAERFLKELEEAAKEYAKDEAKTMSEEEAKRRAKKYKEKVLLSELSEEEQKEIKEAEEKLVRTILKYVEEAAK
apparent Kd (screen): 5.31 nM

B18: M2Q (designed binder)
chain: SQEEEVEKAAKEYEKKKKEAIEKHLEKLKAKDKEAAERFLKELEEAAKEYAKDEAKTMSEEEAKRRAKKYKEKVLLSELSEEEQKEIKEAEEKLVRTILKYVEEAAK
apparent Kd (screen): 0.869 nM

B19: E61P (designed binder)
chain: SMEEEVEKAAKEYEKKKKEAIEKHLEKLKAKDKEAAERFLKELEEAAKEYAKDEAKTMSEPEAKRRAKKYKEKVLLSELSEEEQKEIKEAEEKLVRTILKYVEEAAK
apparent Kd (screen): 0.869 nM

B20: A67D (designed binder)
chain: SMEEEVEKAAKEYEKKKKEAIEKHLEKLKAKDKEAAERFLKELEEAAKEYAKDEAKTMSEEEAKRRDKKYKEKVLLSELSEEEQKEIKEAEEKLVRTILKYVEEAAK
apparent Kd (screen): 5.31 nM

B21: S77Y (designed binder)
chain: SMEEEVEKAAKEYEKKKKEAIEKHLEKLKAKDKEAAERFLKELEEAAKEYAKDEAKTMSEEEAKRRAKKYKEKVLLYELSEEEQKEIKEAEEKLVRTILKYVEEAAK
apparent Kd (screen): 0.869 nM

B22: S80C (designed binder)
chain: SMEEEVEKAAKEYEKKKKEAIEKHLEKLKAKDKEAAERFLKELEEAAKEYAKDEAKTMSEEEAKRRAKKYKEKVLLSELCEEEQKEIKEAEEKLVRTILKYVEEAAK
apparent Kd (screen): 1.05 nM

B23: E5A (designed binder)
chain: SMEEAVEKAAKEYEKKKKEAIEKHLEKLKAKDKEAAERFLKELEEAAKEYAKDEAKTMSEEEAKRRAKKYKEKVLLSELSEEEQKEIKEAEEKLVRTILKYVEEAAK
apparent Kd (screen): 0.593 nM

B24: Y50Q (designed binder)
chain: SMEEEVEKAAKEYEKKKKEAIEKHLEKLKAKDKEAAERFLKELEEAAKEQAKDEAKTMSEEEAKRRAKKYKEKVLLSELSEEEQKEIKEAEEKLVRTILKYVEEAAK
apparent Kd (screen): 4.83 nM

B25: A10G (designed binder)
chain: SMEEEVEKAGKEYEKKKKEAIEKHLEKLKAKDKEAAERFLKELEEAAKEYAKDEAKTMSEEEAKRRAKKYKEKVLLSELSEEEQKEIKEAEEKLVRTILKYVEEAAK
apparent Kd (screen): 0.446 nM

B26: K73H (designed binder)
chain: SMEEEVEKAAKEYEKKKKEAIEKHLEKLKAKDKEAAERFLKELEEAAKEYAKDEAKTMSEEEAKRRAKKYKEHVLLSELSEEEQKEIKEAEEKLVRTILKYVEEAAK
apparent Kd (screen): 12.5 nM

B27: E89C (designed binder)
chain: SMEEEVEKAAKEYEKKKKEAIEKHLEKLKAKDKEAAERFLKELEEAAKEYAKDEAKTMSEEEAKRRAKKYKEKVLLSELSEEEQKEIKCAEEKLVRTILKYVEEAAK
apparent Kd (screen): 1.86 nM

B28: K85D (designed binder)
chain: SMEEEVEKAAKEYEKKKKEAIEKHLEKLKAKDKEAAERFLKELEEAAKEYAKDEAKTMSEEEAKRRAKKYKEKVLLSELSEEEQDEIKEAEEKLVRTILKYVEEAAK
apparent Kd (screen): 0.446 nM

B29: E26V (designed binder)
chain: SMEEEVEKAAKEYEKKKKEAIEKHLVKLKAKDKEAAERFLKELEEAAKEYAKDEAKTMSEEEAKRRAKKYKEKVLLSELSEEEQKEIKEAEEKLVRTILKYVEEAAK
apparent Kd (screen): 0.79 nM

B30: I98F (designed binder)
chain: SMEEEVEKAAKEYEKKKKEAIEKHLEKLKAKDKEAAERFLKELEEAAKEYAKDEAKTMSEEEAKRRAKKYKEKVLLSELSEEEQKEIKEAEEKLVRTFLKYVEEAAK
apparent Kd (screen): 4.39 nM

B31: K15D (designed binder)
chain: SMEEEVEKAAKEYEDKKKEAIEKHLEKLKAKDKEAAERFLKELEEAAKEYAKDEAKTMSEEEAKRRAKKYKEKVLLSELSEEEQKEIKEAEEKLVRTILKYVEEAAK
apparent Kd (screen): 0.653 nM

B32: V95G (designed binder)
chain: SMEEEVEKAAKEYEKKKKEAIEKHLEKLKAKDKEAAERFLKELEEAAKEYAKDEAKTMSEEEAKRRAKKYKEKVLLSELSEEEQKEIKEAEEKLGRTILKYVEEAAK
apparent Kd (screen): 5.84 nM

B33: Y101E (designed binder)
chain: SMEEEVEKAAKEYEKKKKEAIEKHLEKLKAKDKEAAERFLKELEEAAKEYAKDEAKTMSEEEAKRRAKKYKEKVLLSELSEEEQKEIKEAEEKLVRTILKEVEEAAK
apparent Kd (screen): 0.405 nM

B34: E3L (designed binder)
chain: SMLEEVEKAAKEYEKKKKEAIEKHLEKLKAKDKEAAERFLKELEEAAKEYAKDEAKTMSEEEAKRRAKKYKEKVLLSELSEEEQKEIKEAEEKLVRTILKYVEEAAK
apparent Kd (screen): 12.5 nM

B35: E54Y (designed binder)
chain: SMEEEVEKAAKEYEKKKKEAIEKHLEKLKAKDKEAAERFLKELEEAAKEYAKDYAKTMSEEEAKRRAKKYKEKVLLSELSEEEQKEIKEAEEKLVRTILKYVEEAAK
apparent Kd (screen): 7.78 nM
